According to article PMC11599015:

Biological target: recombinant circular RABV N10-RNA complex purified from insect cells (phosphorylated) (rabies virus (RABV)) (UniProt Q8JXF6)
Test: SPR

recombinant circular RABV N10-RNA complex purified from insect cells (phosphorylated) (rabies virus (RABV)), sequence (Q8JXF6 whole entry, one chain of several): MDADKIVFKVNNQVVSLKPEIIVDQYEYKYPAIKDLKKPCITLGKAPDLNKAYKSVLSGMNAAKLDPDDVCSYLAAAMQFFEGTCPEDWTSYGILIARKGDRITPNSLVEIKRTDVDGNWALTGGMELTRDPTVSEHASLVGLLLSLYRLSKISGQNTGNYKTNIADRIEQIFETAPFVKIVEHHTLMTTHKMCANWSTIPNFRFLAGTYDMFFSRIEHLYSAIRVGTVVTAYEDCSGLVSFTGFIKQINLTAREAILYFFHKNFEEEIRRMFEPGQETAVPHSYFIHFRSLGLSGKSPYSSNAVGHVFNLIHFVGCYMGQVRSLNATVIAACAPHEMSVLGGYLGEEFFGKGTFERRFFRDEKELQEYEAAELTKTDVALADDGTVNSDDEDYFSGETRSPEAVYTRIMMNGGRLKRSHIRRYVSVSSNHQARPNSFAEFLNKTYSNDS

Substance: RABV phosphoprotein P deleted of residues 90-133 (dimerization domain) (domain or fragment)
- Kd: 80 nM
- stoichiometry N: 1.7
